Target: T1, MERMUC bait protein (Homo sapiens, UniProt Q8N307)
T1 construct: Bait-2 corresponds to a 123 amino acid portion of the C-terminus (bait-2); expressed in transfected cells; host or cells: yeast AH109 strain (pGBKT7 bait vector)
T1 sequence (Q8N307 587-709): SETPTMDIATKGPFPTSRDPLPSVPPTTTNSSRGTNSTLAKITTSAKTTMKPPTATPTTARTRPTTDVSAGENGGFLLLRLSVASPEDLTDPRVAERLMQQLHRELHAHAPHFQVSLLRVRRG
Experiment: Yeast two-hybrid binding of c-Met prey deletion proteins to MERMUC bait-2
Conditions: yeast growth on SD/-Leu,-Trp,-His and SD/-Leu,-Trp,-Ade; human MERMUC bait-2
Protocol: The present invention was performed using the reported yeast two-hybrid system (Proc. Natl. Acad. Sci. USA., 1991, Vol. 88, p.9578-9582) based on conventional method and the experimental protocols appended to the reagents.
PCR was performed using DNA (clone No. 3-309) corresponding to the 91 amino acids (amino acids 993-1083 of SEQ ID NO: 4) of the C-terminal region of the human HGF receptor c-Met β chain that was identified in the previous Example to have the binding ability to the cytoplasmic region of human MERMUC as a template. […]
The binding activity between the c-Met prey proteins derived from the 7 DNA fragments and the MERMUC bait protein was analyzed by the yeast two-hybrid system described in Example 1. Specifically, the binding activity was evaluated based on the growth of yeast transformed with the vector on 2 kinds of yeast minimum media, i.e., (1) SD/-Leu, -Trp, -His media and (2) SD/-Leu, -Trp, -Ade media.

binding activity with MERMUC bait protein: − (no binding).
Substance: prey DNA G: c-Met prey protein, amino acids 993-1043 of SEQ ID NO: 4 (RRLLQPEYCPDPLYEVMLKCWHPKAEMRPSFSELVSRISAIFSTFIGEHYV; listed as Homo sapiens)

From patent publication US20050113284A1, “Drug for regenerating tissue and vessel and method therefor” (priority 2001, published 2005)
